The record followed here is US20140154243A1 (Amgen, published 2014).

The target in one test is T1, mouse HGF (mouse, UniProt Q08048 33-728).
T1 construct: also called recombinant mouse HGF; mHGF
Briefly: FACS bead assay: antibody incubated with the avidin fusion of mouse HGF, captured on biotin-coated beads; FITC anti-avidin (x) against PE goat anti-human F(ab')2 (y). As to the method: After incubation, the fusion proteins in each sample were separately captured using biotin-coated beads (Spherotech Inc., Libertyville, Ill., Cat # TP-60-5). The resulting bead-protein complexes were labeled by adding FITC labeled anti-avidin antibody (Vector Lab, Burlingame, Calif., Cat. # SP-2040). The presence of antibodies to HGF was determined by adding phycoerythrin (PE) labeled goat anti-human F(ab′)2 antibody (Southern Biotech Associates, Inc, Birmingham, Ala., Cat #2043-09).
Those samples were then subjected to Fluorescence Activated Cell Sorter (FACS) analysis. Bead complexes labeled by FITC (which indicated the presence of avidin) and/or PE (which indicated the presence of antibody to HGF) were detected on a Becton Dickinson Bioscience FACScan (BD, Franklin Lakes, N.J.).

For test [1], the target named is T2, human hepatocyte growth factor (HGF) (human, UniProt P14210 32-728).
T2 construct: Recombinant protein; The mature protein is a heterodimer of the alpha and beta subunits; also called human HGF; full length HGF
Description: BIAcore 3000, kinetic method: antibody captured on immobilized Protein G, human HGF (0-100 nM) injected. An excerpt:
The running buffer for those analyses was PBS with 0.005% P20 surfactant (BIAcore, Inc. Piscataway, N.J.). Recombinant Protein G (Pierce, Rockford, Ill.) was immobilized to a research grade CM5 sensor chip (Biacore, Inc. Piscataway, N.J.) via primary amine groups using the Amine Coupling Kit (Biacore, Inc. Piscataway, N.J.), according to the manufacturer's instructions.
In six separate samples, about 200 resonance units (RU) of each of the six antibodies to HGF was separately attached to immobilized Protein G following the manufacturer's instructions. Samples comprising various concentrations (0-100 nM) of human HGF were injected over the bound antibody surface at a flow rate of 50 μl/min for 3 minutes. Antibody binding kinetic parameters including kₐ (association rate constant), kd (dissociation rate constant), and KD (dissociation equilibrium constant) were determined using the BIA evaluation 3.1 computer program (BIAcore, Inc. Piscataway, N.J.). Lower dissociation equilibrium constants indicate greater affinity of the antibody for HGF.
On the technique in general: Surface plasmon resonance follows binding to a sensor surface in real time, without labels.

The target of test [2] is T2, human hepatocyte growth factor (HGF). Briefly: neutralization ELISA (right table): inhibition of the binding of soluble Met (2 nM) to plate-coated HGF, detected with biotinylated anti-cMetR antibody and Eu-streptavidin; column head 'IC50 IP (nM)'. As to the method: A neutralization ELISA assay was developed to assess whether the antibodies discussed in Example 6 could interrupt Met-HGF binding. Delphia 96-well plates (Cat#: AAAND-0001, Wallac Inc., Gaithersburg, Md.) were coated with HGF by adding 100 μl of HGF at 6.25 μg/ml per well. The plates were incubated at 37° C. for 1 hour or at 4° C. overnight. The plates were then blocked with 5% BSA (Cat#50-61-00, KPL, Gaithersburg, Md.) in PBS containing 0.1% Tween 20 for 1 hour at room temperature with shaking.
Test samples were prepared by separately mixing soluble Met (2 nM, 0.256 μg/ml) with different concentrations of a particular antibody to HGF being tested. The concentrations tested were: 667 nM, 223 nM, 74.1 nM, 24.7 nM, 8.2 nM, 2.7 nM, 0.91 nM, 0.30 nM, 0.10 nM, and 0.034 nM. A volume of 100 μl of a test sample was added to each well of the plates. The plates were then incubated at 4° C. overnight and then washed 4 times with PBS containing 0.1% Tween 20. Next, 100 μl per well of Biotinylated anti-cMetR antibody (Cat#: BAF358, R&D Systems Inc., Minneapolis, Minn.) at 2 μg/ml, was added. […] The plates were then incubated for 2 hours with shaking, and were washed 4 times with PBS containing 0.1% Tween 20. Eu-streptavidin (1:1000 dilution in Assay buffer) (Cat#1244-360, Wallac Inc., Gaithersburg, Md.) was added and the plates were shaken at room temperature for 1 hour. The plates were then washed 4 times with PBS containing 0.1% Tween 20. Next, 100 μl of enhancement buffer (Wallac Inc., Cat#: 1244-105, Gaithersburg, Md.) was added. After at least for 5 minutes, the plates were read using Europium method on Victor 2 (1420 Multilabel Counter, Wallac Inc., Gaithersburg, Md.).
Percent inhibition of Met binding to HGF (i.e. neutralization) was calculated and IC₅₀ values were determined using the 4 parameter fit equation Excelfit, Version 2.0.6, (Microsoft Inc, Seattle, Wash.). In the presence of the antibodies to HGF discussed in Examples 6, Met binding to HGF was neutralized.
(In general: In an ELISA, binding on a coated surface is turned into a signal by an enzyme label.)

T2 sequence (P14210 32-728 limits assumed): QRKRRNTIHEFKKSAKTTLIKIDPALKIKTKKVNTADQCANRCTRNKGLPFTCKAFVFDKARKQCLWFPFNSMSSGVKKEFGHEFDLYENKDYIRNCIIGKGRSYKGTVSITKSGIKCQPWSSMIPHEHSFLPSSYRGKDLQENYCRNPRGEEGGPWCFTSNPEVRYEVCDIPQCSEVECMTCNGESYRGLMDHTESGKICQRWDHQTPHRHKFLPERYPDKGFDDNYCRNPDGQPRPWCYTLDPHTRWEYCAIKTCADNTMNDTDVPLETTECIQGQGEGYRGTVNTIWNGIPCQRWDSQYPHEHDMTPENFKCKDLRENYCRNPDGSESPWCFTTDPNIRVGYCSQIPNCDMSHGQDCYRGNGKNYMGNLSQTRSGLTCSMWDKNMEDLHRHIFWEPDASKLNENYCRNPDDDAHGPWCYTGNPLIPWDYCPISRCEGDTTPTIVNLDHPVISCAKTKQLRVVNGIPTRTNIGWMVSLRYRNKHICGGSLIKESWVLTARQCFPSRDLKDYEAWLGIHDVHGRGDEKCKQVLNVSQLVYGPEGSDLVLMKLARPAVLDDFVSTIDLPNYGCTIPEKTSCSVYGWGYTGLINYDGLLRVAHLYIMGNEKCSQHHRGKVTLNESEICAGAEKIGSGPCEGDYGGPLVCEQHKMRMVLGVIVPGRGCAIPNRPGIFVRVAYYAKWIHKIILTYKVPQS
T1 sequence (Q08048 33-728 limits assumed): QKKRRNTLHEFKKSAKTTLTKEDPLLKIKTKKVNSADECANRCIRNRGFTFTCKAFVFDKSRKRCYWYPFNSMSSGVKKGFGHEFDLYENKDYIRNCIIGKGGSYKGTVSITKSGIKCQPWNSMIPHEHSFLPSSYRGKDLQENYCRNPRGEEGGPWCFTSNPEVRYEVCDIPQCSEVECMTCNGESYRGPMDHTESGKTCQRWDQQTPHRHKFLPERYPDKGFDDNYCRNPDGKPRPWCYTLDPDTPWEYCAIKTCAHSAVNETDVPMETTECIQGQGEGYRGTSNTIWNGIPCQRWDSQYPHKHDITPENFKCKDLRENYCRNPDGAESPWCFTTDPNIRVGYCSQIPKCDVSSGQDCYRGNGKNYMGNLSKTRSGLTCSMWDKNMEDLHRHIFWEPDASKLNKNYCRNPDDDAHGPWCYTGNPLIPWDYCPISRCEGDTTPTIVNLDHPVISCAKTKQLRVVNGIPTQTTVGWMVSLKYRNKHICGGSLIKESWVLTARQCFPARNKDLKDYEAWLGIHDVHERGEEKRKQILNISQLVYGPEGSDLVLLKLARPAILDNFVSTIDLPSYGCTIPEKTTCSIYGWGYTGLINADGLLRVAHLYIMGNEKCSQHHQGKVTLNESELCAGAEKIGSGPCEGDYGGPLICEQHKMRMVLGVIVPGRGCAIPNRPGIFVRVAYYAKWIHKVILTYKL

B1: antibody 2.12.1 (antibody, human IgG2, kappa, V domains shown)
VH: QVQLQESGPGLVKPSETLSLTCTVSGGSISIYYWSWIRQPPGKGLEWIGYVYYSGSTNYNPSLKSRVTISVDTSKNQFSLKLNSVTAADTAVYYCARGGYDFWSGYFDYWGQGTLVTVSS
VL: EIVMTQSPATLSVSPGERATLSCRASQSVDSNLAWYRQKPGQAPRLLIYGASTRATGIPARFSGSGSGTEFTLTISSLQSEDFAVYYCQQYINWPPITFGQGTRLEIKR
Consider B1, for which the binding result with mouse HGF is recorded as “no binding”. Also, in test [1], the Kd (in general, the free concentration of one partner at which half of the binding sites on the other are occupied at equilibrium, for simple one-to-one binding) was around 220 pM; the koff (commonly a measure of how fast the partners let go of each other) worked out at 2.8e-05 s⁻¹; the kon (as a rule, the second-order rate constant of association) came out at 130000 M⁻¹ s⁻¹. In addition, in test [2], the IC50 (commonly the midpoint of a concentration-inhibition curve) amounted to 520 pM.

B2: antibody 2.4.4 (antibody, human IgG2, kappa, V domains shown)
VH: QVQLKESGPGLVKPSQTLSLTCTVSGGSISSGVYYWSWIRQHPGKGLEWIGYFYYSGNTYHNPSLKSRVTISVDTSKNQFSLKLSSVTAADTAVYYCARDRSGYDHPDAFDIWGQGTMVTVSS
VL: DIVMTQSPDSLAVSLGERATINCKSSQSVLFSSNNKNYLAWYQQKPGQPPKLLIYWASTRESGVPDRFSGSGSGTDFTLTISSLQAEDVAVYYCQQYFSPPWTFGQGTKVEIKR
notes: also called FITC-labeled antibody 2.4.4
As for B2, the binding result with mouse HGF is “no binding”. For the same molecule, in test [1], the Kd was around 99 pM, the koff is 2.7e-05 s⁻¹ and the kon was determined as 270000 M⁻¹ s⁻¹.
